The experiment has as its target T1, Full-length cysteine string protein CSP(1-198), Q9H3Z4.
T1 chain: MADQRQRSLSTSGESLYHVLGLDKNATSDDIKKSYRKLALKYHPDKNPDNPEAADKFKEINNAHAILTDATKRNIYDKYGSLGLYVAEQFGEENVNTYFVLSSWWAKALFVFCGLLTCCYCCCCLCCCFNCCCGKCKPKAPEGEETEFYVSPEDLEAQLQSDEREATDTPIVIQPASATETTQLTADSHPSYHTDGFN
Put plainly: AUC; sedimentation velocity, 50,000 rpm, 20.1°C, 9 hr, absorbance at 279 nm; self-association of purified recombinant protein. Particulars: remark: other sources report otherwise.

B1: Full-length cysteine string protein CSP(1-198), Q9H3Z4 1-198 (natural protein)
chain: MADQRQRSLSTSGESLYHVLGLDKNATSDDIKKSYRKLALKYHPDKNPDNPEAADKFKEINNAHAILTDATKRNIYDKYGSLGLYVAEQFGEENVNTYFVLSSWWAKALFVFCGLLTCCYCCCCLCCCFNCCCGKCKPKAPEGEETEFYVSPEDLEAQLQSDEREATDTPIVIQPASATETTQLTADSHPSYHTDGFN
For orientation: stoichiometry N means the number of molecules, sites or subunits per partner or assembly. For the molecule B1, the stoichiometry N was > 10 subunits.

Source of the values: paper PMC4975591.
